Results from US20210324028A1 (Pfizer, published 2021).

T1: human IL-2Rβ (human, UniProt P14784 27-240, limits assumed)
T1 construct: also called hIL-2Rβ; IL-2 receptor beta
T1 sequence (looked up): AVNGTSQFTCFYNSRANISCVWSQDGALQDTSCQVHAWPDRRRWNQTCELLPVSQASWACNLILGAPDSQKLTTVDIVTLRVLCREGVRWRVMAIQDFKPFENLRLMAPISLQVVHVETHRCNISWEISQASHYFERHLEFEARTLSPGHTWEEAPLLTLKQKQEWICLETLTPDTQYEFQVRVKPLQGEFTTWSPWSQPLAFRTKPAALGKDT


Experiments:
human IL-15Rα = biological target: T2, human IL-15Rα (human, UniProt Q13261 31-205, limits assumed); assay: SPR, steady state
T2 construct: also called hIL-15Rα; IL-15 receptor alpha
T2 sequence (Q13261 31-205 limits assumed): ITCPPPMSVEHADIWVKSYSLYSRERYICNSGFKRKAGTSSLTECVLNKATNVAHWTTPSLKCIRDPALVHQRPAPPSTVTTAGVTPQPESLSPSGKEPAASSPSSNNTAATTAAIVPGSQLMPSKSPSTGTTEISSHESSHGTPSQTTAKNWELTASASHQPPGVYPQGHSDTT

human IL-2Rβ [1] = biological target: T1, human IL-2Rβ; assay: SPR 37C
human IL-2Rβ [2] = biological target: T1, human IL-2Rβ; assay: SPR, steady state

Binder	Kd (human IL-15Rα)	binding result (human IL-2Rβ [1])	Kd (human IL-2Rβ [2])
hIL-15 V49R/D8A (ligand) NWVNVISALKKIEDLIQSMHIDATLYTESDVHPSCKVTAMKCFLLELQRISLESGDASIHDTVENLIILANNSLSSNGNVTESGCKECEELEEKNIKEFLQSFVHIVQMFINTGGGGSGHHHHHHHHGGGLNDIFEAQKIEWHE	102 nM	no binding	
hIL-15 V49R/K11P (ligand) NWVNVISDLKPIEDLIQSMHIDATLYTESDVHPSCKVTAMKCFLLELQRISLESGDASIHDTVENLIILANNSLSSNGNVTESGCKECEELEEKNIKEFLQSFVHIVQMFINTGGGGSGHHHHHHHHGGGLNDIFEAQKIEWHE		no binding	
hIL-15 V49R/I68D (ligand) NWVNVISDLKKIEDLIQSMHIDATLYTESDVHPSCKVTAMKCFLLELQRISLESGDASIHDTVENLIDLANNSLSSNGNVTESGCKECEELEEKNIKEFLQSFVHIVQMFINTGGGGSGHHHHHHHHGGGLNDIFEAQKIEWHE	106 nM	no binding	
hIL-15 V49R/E64K (ligand) NWVNVISDLKKIEDLIQSMHIDATLYTESDVHPSCKVTAMKCFLLELQRISLESGDASIHDTVKNLIILANNSLSSNGNVTESGCKECEELEEKNIKEFLQSFVHIVQMFINTGGGGSGHHHHHHHHGGGLNDIFEAQKIEWHE	164 nM	no binding	
hIL-15 V49R/V31S (ligand) NWVNVISDLKKIEDLIQSMHIDATLYTESDSHPSCKVTAMKCFLLELQRISLESGDASIHDTVENLIILANNSLSSNGNVTESGCKECEELEEKNIKEFLQSFVHIVQMFINTGGGGSGHHHHHHHHGGGLNDIFEAQKIEWHE	265 nM		> 500 nM
hIL-15 V49R/I68K (ligand) NWVNVISDLKKIEDLIQSMHIDATLYTESDVHPSCKVTAMKCFLLELQRISLESGDASIHDTVENLIKLANNSLSSNGNVTESGCKECEELEEKNIKEFLQSFVHIVQMFINTGGGGSGHHHHHHHHGGGLNDIFEAQKIEWHE	94.2 nM	no binding	
hIL-15 V49R/D8S (ligand) NWVNVISSLKKIEDLIQSMHIDATLYTESDVHPSCKVTAMKCFLLELQRISLESGDASIHDTVENLIILANNSLSSNGNVTESGCKECEELEEKNIKEFLQSFVHIVQMFINTGGGGSGHHHHHHHHGGGLNDIFEAQKIEWHE	124 nM	no binding	
hIL-15 V49R/N4S (ligand) NWVSVISDLKKIEDLIQSMHIDATLYTESDVHPSCKVTAMKCFLLELQRISLESGDASIHDTVENLIILANNSLSSNGNVTESGCKECEELEEKNIKEFLQSFVHIVQMFINTGGGGSGHHHHHHHHGGGLNDIFEAQKIEWHE	94.7 nM	no binding	
hIL-15 V49R/D8K (ligand) NWVNVISKLKKIEDLIQSMHIDATLYTESDVHPSCKVTAMKCFLLELQRISLESGDASIHDTVENLIILANNSLSSNGNVTESGCKECEELEEKNIKEFLQSFVHIVQMFINTGGGGSGHHHHHHHHGGGLNDIFEAQKIEWHE	101 nM	no binding	
hIL-15 V49R/I68S (ligand) NWVNVISDLKKIEDLIQSMHIDATLYTESDVHPSCKVTAMKCFLLELQRISLESGDASIHDTVENLISLANNSLSSNGNVTESGCKECEELEEKNIKEFLQSFVHIVQMFINTGGGGSGHHHHHHHHGGGLNDIFEAQKIEWHE	104 nM	no binding	
hIL-15 V49R/K10P (ligand) NWVNVISDLPKIEDLIQSMHIDATLYTESDVHPSCKVTAMKCFLLELQRISLESGDASIHDTVENLIILANNSLSSNGNVTESGCKECEELEEKNIKEFLQSFVHIVQMFINTGGGGSGHHHHHHHHGGGLNDIFEAQKIEWHE		no binding	
hIL-15 V49R/D61K (ligand) NWVNVISDLKKIEDLIQSMHIDATLYTESDVHPSCKVTAMKCFLLELQRISLESGDASIHKTVENLIILANNSLSSNGNVTESGCKECEELEEKNIKEFLQSFVHIVQMFINTGGGGSGHHHHHHHHGGGLNDIFEAQKIEWHE	116 nM	no binding	
hIL-15 V49R/S29N (ligand) NWVNVISDLKKIEDLIQSMHIDATLYTENDVHPSCKVTAMKCFLLELQRISLESGDASIHDTVENLIILANNSLSSNGNVTESGCKECEELEEKNIKEFLQSFVHIVQMFINTGGGGSGHHHHHHHHGGGLNDIFEAQKIEWHE	154 nM		322 nM
hIL-15 V49R/N4I (ligand) NWVIVISDLKKIEDLIQSMHIDATLYTESDVHPSCKVTAMKCFLLELQRISLESGDASIHDTVENLIILANNSLSSNGNVTESGCKECEELEEKNIKEFLQSFVHIVQMFINTGGGGSGHHHHHHHHGGGLNDIFEAQKIEWHE		no binding	
hIL-15 V49R/D61N (ligand) NWVNVISDLKKIEDLIQSMHIDATLYTESDVHPSCKVTAMKCFLLELQRISLESGDASIHNTVENLIILANNSLSSNGNVTESGCKECEELEEKNIKEFLQSFVHIVQMFINTGGGGSGHHHHHHHHGGGLNDIFEAQKIEWHE	121 nM	no binding	
hIL-15 V49R/N65A (ligand) NWVNVISDLKKIEDLIQSMHIDATLYTESDVHPSCKVTAMKCFLLELQRISLESGDASIHDTVEALIILANNSLSSNGNVTESGCKECEELEEKNIKEFLQSFVHIVQMFINTGGGGSGHHHHHHHHGGGLNDIFEAQKIEWHE	202 nM	no binding	
hIL-15 V49R/V31D (ligand) NWVNVISDLKKIEDLIQSMHIDATLYTESDDHPSCKVTAMKCFLLELQRISLESGDASIHDTVENLIILANNSLSSNGNVTESGCKECEELEEKNIKEFLQSFVHIVQMFINTGGGGSGHHHHHHHHGGGLNDIFEAQKIEWHE	> 500 nM		> 500 nM
hIL-15 V49R/D8N (ligand) NWVNVISNLKKIEDLIQSMHIDATLYTESDVHPSCKVTAMKCFLLELQRISLESGDASIHDTVENLIILANNSLSSNGNVTESGCKECEELEEKNIKEFLQSFVHIVQMFINTGGGGSGHHHHHHHHGGGLNDIFEAQKIEWHE	119 nM	no binding	
hIL-15 V49R/D61S (ligand) NWVNVISDLKKIEDLIQSMHIDATLYTESDVHPSCKVTAMKCFLLELQRISLESGDASIHSTVENLIILANNSLSSNGNVTESGCKECEELEEKNIKEFLQSFVHIVQMFINTGGGGSGHHHHHHHHGGGLNDIFEAQKIEWHE	102 nM	no binding	
hIL-15 V49R/N65S (ligand) NWVNVISDLKKIEDLIQSMHIDATLYTESDVHPSCKVTAMKCFLLELQRISLESGDASIHDTVESLIILANNSLSSNGNVTESGCKECEELEEKNIKEFLQSFVHIVQMFINTGGGGSGHHHHHHHHGGGLNDIFEAQKIEWHE	158 nM	no binding	
hIL-15 V49R/V31A (ligand) NWVNVISDLKKIEDLIQSMHIDATLYTESDAHPSCKVTAMKCFLLELQRISLESGDASIHDTVENLIILANNSLSSNGNVTESGCKECEELEEKNIKEFLQSFVHIVQMFINTGGGGSGHHHHHHHHGGGLNDIFEAQKIEWHE	129 nM		269 nM
hIL-15 V49R/N4K (ligand) NWVKVISDLKKIEDLIQSMHIDATLYTESDVHPSCKVTAMKCFLLELQRISLESGDASIHDTVENLIILANNSLSSNGNVTESGCKECEELEEKNIKEFLQSFVHIVQMFINTGGGGSGHHHHHHHHGGGLNDIFEAQKIEWHE	73.1 nM	no binding	
